# Positions count from the first letter of the chain named. Names and notes keep the numbering of the source.
# B1: Factor VIII SingleChain D1681C mutant (other)
# chain: ATRRYYLGAVELSWDYMQSDLGELPVDARFPPRVPKSFPFNTSVVYKKTLFVEFTDHLFNIAKPRPPWMGLLGPTIQAEVYDTVVITLKNMASHPVSLHAVGVSYWKASEGAEYDDQTSQREKEDDKVFPGGSHTYVWQVLKENGPMASDPLCLTYSYLSHVDLVKDLNSGLIGALLVCREGSLAKEKTQTLHKFILLFAVFDEGKSWHSETKNSLMQDRDAASARAWPKMHTVNGYVNRSLPGLIGCHRKSVYWHVIGMGTTPEVHSIFLEGHTFLVRNHRQASLEISPITFLTAQTLLMDLGQFLLFCHISSHQHDGMEAYVKVDSCPEEPQLRMKNNEEAEDYDDDLTDSEMDVVRFDDDNSPSFIQIRSVAKKHPKTWVHYIAAEEEDWDYAPLVLAPDDRSYKSQYLNNGPQRIGRKYKKVRFMAYTDETFKTREAIQHESGILGPLLYGEVGDTLLIIFKNQASRPYNIYPHGITDVRPLYSRRLPKGVKHLKDFPILPGEIFKYKWTVTVEDGPTKSDPRCLTRYYSSFVNMERDLASGLIGPLLICYKESVDQRGNQIMSDKRNVILFSVFDENRSWYLTENIQRFLPNPAGVQLEDPEFQASNIMHSINGYVFDSLQLSVCLHEVAYWYILSIGAQTDFLSVFFSGYTFKHKMVYEDTLTLFPFSGETVFMSMENPGLWILGCHNSDFRNRGMTALLKVSSCDKNTGDYYEDSYEDISAYLLSKNNAIEPRSFSQNSRHRSTRQKQFNATTIPENTTLQSDQEEIDYDDTISVEMKKEDFDIYCEDENQSPRSFQKKTRHYFIAAVERLWDYGMSSSPHVLRNRAQSGSVPQFKKVVFQEFTDGSFTQPLYRGELNEHLGLLGPYIRAEVEDNIMVTFRNQASRPYSFYSSLISYEEDQRQGAEPRKNFVKPNETKTYFWKVQHHMAPTKDEFDCKAWAYFSDVDLEKDVHSGLIGPLLVCHTNTLNPAHGRQVTVQEFALFFTIFDETKSWYFTENMERNCRAPCNIQMEDPTFKENYRFHAINGYIMDTLPGLVMAQDQRIRWYLLSMGSNENIHSIHFSGHVFTVRKKEEYKMALYNLYPGVFETVEMLPSKAGIWRVECLIGEHLHAGMSTLFLVYSNKCQTPLGMASGHIRDFQITASGQYGQWAPKLARLHYSGSINAWSTKEPFSWIKVDLLAPMIIHGIKTQGARQKFSSLYISQFIIMYSLDGKKWQTYRGNSTGTLMVFFGNVDSSGIKHNIFNPPIIARYIRLHPTHYSIRSTLRMELMGCDLNSCSMPLGMESKAISDAQITASSYFTNMFATWSPSKARLHLQGRSNAWRPQVNNPKEWLQVDFQKTMKVTGVTTQGVKSLLTSMYVKEFLISSSQDGHQWTLFFQNGKVKVFQGNQDSFTPVVNSLDPPLLTRYLRIHPQSWVHQIALRMEVLGCEAQDLY
# notes: Single-chain FVIII with partial B-domain deletion; also called FVIII-SC D1681C; Cys residue at FVIII aa position 1681
# B2: Factor VIII SingleChain F1677C mutant (other)
# chain: B1 chain with F789C, C793D
# notes: Single-chain FVIII with partial B-domain deletion; also called FVIII-SC F1677C; Cys residue at FVIII aa position 1677
# B3: Factor VIII SingleChain Q1686C mutant (other)
# chain: B1 chain with C793D, Q798C
# notes: Single-chain FVIII with partial B-domain deletion; also called FVIII-SC Q1686C; Cys residue at FVIII aa position 1686
# B4: Factor VIII SingleChain E1682C mutant (other)
# chain: B1 chain with C793D, E794C
# notes: Single-chain FVIII with partial B-domain deletion; also called FVIII-SC E1682C; Cys residue at FVIII aa position 1682
# B5: Factor VIII SingleChain I1679C mutant (other)
# chain: B1 chain with I791C, C793D
# notes: Single-chain FVIII with partial B-domain deletion; also called FVIII-SC I1679C mutant; Cys residue at FVIII aa position 1679
# B6: Factor VIII SingleChain D1683C mutant (other)
# chain: B1 chain with C793D, D795C
# notes: Single-chain FVIII with partial B-domain deletion; also called FVIII-SC D1683C; Cys residue at FVIII aa position 1683
# B7: Factor VIII SingleChain E1684C mutant (other)
# chain: B1 chain with C793D, E796C
# notes: Single-chain FVIII with partial B-domain deletion; also called FVIII-SC E1684C; Cys residue at FVIII aa position 1684
# B8: Factor VIII SingleChain S1687C mutant (other)
# chain: B1 chain with C793D, S799C
# notes: Single-chain FVIII with partial B-domain deletion; also called FVIII-SC S1687C; Cys residue at FVIII aa position 1687
# B9: Factor VIII SingleChain T1654C mutant (other)
# chain: B1 chain with T766C, C793D
# notes: Single-chain FVIII with partial B-domain deletion (per WO 2004/067566); also called FVIII-SC T1654C; Cys residue at FVIII aa position 1654
# B10: Factor VIII SingleChain Q1656C mutant (other)
# chain: B1 chain with Q768C, C793D
# notes: Single-chain FVIII with partial B-domain deletion; also called FVIII-SC Q1656C; Cys residue at FVIII aa position 1656
# Biological target: T1, VWF-FP K1116C mutant (albumin-fused von Willebrand Factor) (human)
# T1 construct: Stably expressed in CHO cells with furin co-transfected; also called VWF-FP mutant K1116C; Cys residue at VWF aa position 1116; not shown: linker between VWF and albumin, made in analogy to WO 2009/156137
# Assay: covalent-FVIII ELISA over FVIII activity assay
# T1 sequence (chain, as listed by the source K1116C K1116C): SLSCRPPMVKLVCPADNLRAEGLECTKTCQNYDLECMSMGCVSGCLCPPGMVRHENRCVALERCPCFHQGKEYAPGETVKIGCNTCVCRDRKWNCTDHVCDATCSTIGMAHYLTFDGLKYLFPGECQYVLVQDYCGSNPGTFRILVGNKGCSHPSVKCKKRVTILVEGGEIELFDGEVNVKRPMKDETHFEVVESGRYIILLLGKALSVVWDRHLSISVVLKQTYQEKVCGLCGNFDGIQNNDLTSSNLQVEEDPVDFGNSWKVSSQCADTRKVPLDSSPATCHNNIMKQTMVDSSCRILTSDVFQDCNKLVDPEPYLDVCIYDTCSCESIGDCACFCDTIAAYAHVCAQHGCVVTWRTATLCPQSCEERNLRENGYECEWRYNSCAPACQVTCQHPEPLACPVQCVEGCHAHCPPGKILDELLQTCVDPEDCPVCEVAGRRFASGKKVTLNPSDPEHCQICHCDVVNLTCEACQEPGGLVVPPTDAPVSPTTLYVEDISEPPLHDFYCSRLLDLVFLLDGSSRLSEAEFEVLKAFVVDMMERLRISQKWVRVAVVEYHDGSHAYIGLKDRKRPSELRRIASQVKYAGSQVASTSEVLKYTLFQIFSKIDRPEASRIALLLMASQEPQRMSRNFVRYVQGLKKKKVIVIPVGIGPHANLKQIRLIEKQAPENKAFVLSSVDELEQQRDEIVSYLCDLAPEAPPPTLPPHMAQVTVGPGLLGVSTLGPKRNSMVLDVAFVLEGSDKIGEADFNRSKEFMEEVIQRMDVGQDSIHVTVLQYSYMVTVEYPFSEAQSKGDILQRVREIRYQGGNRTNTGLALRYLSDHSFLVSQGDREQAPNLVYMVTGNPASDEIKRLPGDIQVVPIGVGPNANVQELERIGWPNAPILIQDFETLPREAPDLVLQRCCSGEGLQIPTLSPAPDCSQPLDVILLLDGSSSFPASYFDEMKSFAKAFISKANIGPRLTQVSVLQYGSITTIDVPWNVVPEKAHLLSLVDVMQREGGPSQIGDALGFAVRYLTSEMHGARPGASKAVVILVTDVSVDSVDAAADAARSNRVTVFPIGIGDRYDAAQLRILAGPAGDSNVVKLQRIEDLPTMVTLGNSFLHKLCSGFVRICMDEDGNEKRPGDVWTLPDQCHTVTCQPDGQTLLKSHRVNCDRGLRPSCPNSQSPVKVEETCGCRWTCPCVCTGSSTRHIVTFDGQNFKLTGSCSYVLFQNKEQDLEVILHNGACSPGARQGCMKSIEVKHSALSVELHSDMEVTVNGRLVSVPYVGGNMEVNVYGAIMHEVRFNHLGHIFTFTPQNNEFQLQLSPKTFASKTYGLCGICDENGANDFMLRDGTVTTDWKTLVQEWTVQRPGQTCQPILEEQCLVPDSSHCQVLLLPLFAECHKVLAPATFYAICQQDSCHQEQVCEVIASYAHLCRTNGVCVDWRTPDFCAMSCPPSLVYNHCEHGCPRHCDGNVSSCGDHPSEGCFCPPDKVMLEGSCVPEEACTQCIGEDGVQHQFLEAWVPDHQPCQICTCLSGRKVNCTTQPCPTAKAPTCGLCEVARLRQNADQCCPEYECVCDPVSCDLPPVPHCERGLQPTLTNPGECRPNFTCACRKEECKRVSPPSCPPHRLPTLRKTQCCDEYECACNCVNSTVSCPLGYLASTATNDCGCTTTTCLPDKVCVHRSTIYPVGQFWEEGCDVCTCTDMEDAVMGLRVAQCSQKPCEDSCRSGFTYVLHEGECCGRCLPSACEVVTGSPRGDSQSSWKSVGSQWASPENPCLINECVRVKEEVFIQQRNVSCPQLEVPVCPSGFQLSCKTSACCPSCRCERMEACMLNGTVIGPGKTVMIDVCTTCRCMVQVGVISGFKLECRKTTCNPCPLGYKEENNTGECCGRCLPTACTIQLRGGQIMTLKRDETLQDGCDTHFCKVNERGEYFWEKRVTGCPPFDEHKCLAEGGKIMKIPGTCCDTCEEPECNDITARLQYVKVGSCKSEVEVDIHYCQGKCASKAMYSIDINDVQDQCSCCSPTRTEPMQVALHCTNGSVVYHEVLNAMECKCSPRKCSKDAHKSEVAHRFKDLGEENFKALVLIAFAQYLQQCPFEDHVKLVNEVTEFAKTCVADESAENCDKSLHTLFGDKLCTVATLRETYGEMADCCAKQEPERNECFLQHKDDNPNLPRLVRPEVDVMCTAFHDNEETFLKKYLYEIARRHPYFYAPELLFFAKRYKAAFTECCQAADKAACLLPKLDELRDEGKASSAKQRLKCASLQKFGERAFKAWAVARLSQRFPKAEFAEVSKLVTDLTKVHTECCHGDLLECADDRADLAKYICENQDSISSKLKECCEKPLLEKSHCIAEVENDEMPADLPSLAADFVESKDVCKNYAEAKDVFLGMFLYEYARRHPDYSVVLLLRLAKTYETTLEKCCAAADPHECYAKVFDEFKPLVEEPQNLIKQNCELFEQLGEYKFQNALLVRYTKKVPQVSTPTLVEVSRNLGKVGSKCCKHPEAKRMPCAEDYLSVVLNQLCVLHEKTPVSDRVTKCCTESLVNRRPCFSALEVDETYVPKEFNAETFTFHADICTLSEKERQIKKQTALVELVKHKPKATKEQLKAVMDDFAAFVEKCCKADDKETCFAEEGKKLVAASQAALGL
row,ratio covalent FVIII/Total FVIII activity,Binder
1,0.6,B1
2,1.66,B2
3,0.86,B3
4,0.34,B4
5,1.12,B5
6,0.42,B6
7,0.38,B7

# Biological target: T2, VWF-FP R768C mutant (albumin-fused von Willebrand Factor) (human)
# T2 construct: Stably expressed in CHO cells with furin co-transfected; also called VWF-FP mutant R768C; Cys residue at VWF aa position 768; not shown: linker between VWF and albumin, made in analogy to WO 2009/156137
# Assay: covalent-FVIII ELISA over FVIII activity assay
# T2 sequence (chain, as listed by the source R768C R768C): as the sequence (chain, as listed by the source K1116C K1116C) above, with R5C, C353K counted along it
row,ratio covalent FVIII/Total FVIII activity,Binder
1,1.5,B1
2,1.03,B3
3,2.11,B4
4,4.07,B6
5,1.44,B8
6,1.05,B7

# Biological target: T3, VWF-FP N1134C mutant (albumin-fused von Willebrand Factor) (human)
# T3 construct: Stably expressed in CHO cells with furin co-transfected; also called VWF-FP mutant N1134C; Cys residue at VWF aa position 1134; not shown: linker between VWF and albumin, made in analogy to WO 2009/156137
# Assay: covalent-FVIII ELISA over FVIII activity assay
# T3 sequence (chain, as listed by the source N1134C N1134C): as the sequence (chain, as listed by the source K1116C K1116C) above, with C353K, N371C counted along it
row,ratio covalent FVIII/Total FVIII activity,Binder
1,1.14,B9
2,0.76,B3
3,1.05,B8
4,0.88,B7
5,0.44,B10

# Biological target: T4, VWF-FP P1079C mutant (albumin-fused von Willebrand Factor) (human)
# T4 construct: also called VWF-FP mutant P1079C; Cys residue at VWF aa position 1079; not shown: linker between VWF and albumin, made in analogy to WO 2009/156137
# Assay: covalent-FVIII ELISA over FVIII activity assay
# T4 sequence (chain, as listed by the source P1079C P1079C): as the sequence (chain, as listed by the source K1116C K1116C) above, with P316C, C353K counted along it
row,ratio covalent FVIII/Total FVIII activity,Binder
1,1.59,B9
2,1.26,B5

# Biological target: T5, VWF-FP E1015C mutant (albumin-fused von Willebrand Factor) (human)
# T5 construct: Stably expressed in CHO cells with furin co-transfected; also called VWF-FP mutant E1015C; Cys residue at VWF aa position 1015; not shown: linker between VWF and albumin, made in analogy to WO 2009/156137
# Assay: covalent-FVIII ELISA over FVIII activity assay
# T5 sequence (chain, as listed by the source E1015C E1015C): as the sequence (chain, as listed by the source K1116C K1116C) above, with E252C, C353K counted along it
row,ratio covalent FVIII/Total FVIII activity,Binder
1,1.21,B3

# Biological target: T1, VWF-FP K1116C mutant (albumin-fused von …)
# Assay: covalent-FVIII ELISA over FVIII antigen ELISA
row,ratio covalent FVIII/Total FVIII antigen,Binder
1,2.23,B1
2,0.79,B2
3,5.24,B3
4,1.23,B4
5,0.85,B5
6,1.76,B6
7,1.53,B7

# Biological target: T2, VWF-FP R768C mutant (albumin-fused von …)
# Assay: covalent-FVIII ELISA over FVIII antigen ELISA
row,ratio covalent FVIII/Total FVIII antigen,Binder
1,1.55,B1
2,0.51,B3
3,2.23,B4
4,3.07,B6
5,0.49,B8
6,0.69,B7

# Biological target: T3, VWF-FP N1134C mutant (albumin-fused von …)
# Assay: covalent-FVIII ELISA over FVIII antigen ELISA
row,ratio covalent FVIII/Total FVIII antigen,Binder
1,0.85,B9
2,5.43,B3
3,2.05,B8
4,3.15,B7
5,1,B10

# Biological target: T4, VWF-FP P1079C mutant (albumin-fused von …)
# Assay: covalent-FVIII ELISA over FVIII antigen ELISA
row,ratio covalent FVIII/Total FVIII antigen,Binder
1,0.97,B9
2,1.14,B5

# Biological target: T5, VWF-FP E1015C mutant (albumin-fused von …)
# Assay: covalent-FVIII ELISA over FVIII antigen ELISA
row,ratio covalent FVIII/Total FVIII antigen,Binder
1,0.64,B3

# Biological target: T1, VWF-FP K1116C mutant (albumin-fused von …)
# Assay: ELISA of co-expression supernatant: anti-VWF capture, 350 mM CaCl2 wash, anti-FVIII detection
# Description: (§1) Cell culture supernatant samples (10 ml) from transient transfections were concentrated with Amicon Ultracell-30K (Millipore UFC903024; 3000 g centrifugation). FVIII covalently attached to VWF-FP in culture supernatant (concentrates) was determined by a standard ELISA. Briefly, microplates were incubated with 100 μL per well of the capture antibody (rabbit anti human VWF-IgG, Dako A0082 [Dako, Hamburg, Germany], diluted 1:2000 in buffer A [Sigma C3041, Sigma-Aldrich, Munich, Germany]) overnight at ambient temperature. After washing plates three times with buffer B (Sigma T9039), each well was incubated with 200 μL buffer C (Sigma T6789) for 1.5 hours at ambient temperature (blocking). After another three wash steps with buffer B, serial dilutions of the test sample in buffer B as well as serial dilutions of a control preparation of covalently linked FVIII-VWF-FP, (2.0-0.03 arbitrary U/ml in buffer B (we call these “arbitrary units” as they may not correspond to the standard FVIII units as determined using Standard Human Plasma); volumes per well: 100 μL) were incubated for 1.5 hours at ambient temperature. After three wash steps with buffer B, 200 μL of 350 mM CaCl₂ were added to each well and incubated for 1 hour at ambient temperature. CaCl₂ was removed (without washing) and additional 200 μl were added to each well and incubated further for 1 hour. After three wash steps with buffer B 100 μL of a 1:2 dilution in buffer B of the detection antibody (Detecting Antibody for FVIII:C, peroxidase labelled, Cedarlane CL20035K-D) were added to each well and incubated for 1 hour at ambient temperature. After three wash steps with buffer B, 100 μL of substrate solution (OUVF, Siemens Healthcare Diagnostics) were added per well and incubated for 15 minutes at ambient temperature in the dark. Addition of 100 μL undiluted stop dilution (OSFA, Siemens Healthcare Diagnostics) prepared the samples for reading in a suitable microplate reader at 450 nm wavelength. Concentrations of the test samples were then calculated using the standard curve with the control preparation.
row,covalent FVIII,Binder
1,1440 amU/ml,B1
2,1080 amU/ml,B2
3,2740 amU/ml,B3
4,488 amU/ml,B4
5,992 amU/ml,B5
6,1350 amU/ml,B6
7,1150 amU/ml,B7

# Biological target: T2, VWF-FP R768C mutant (albumin-fused von …)
# Assay: as above
# Description: as §1
row,covalent FVIII,Binder
1,87 amU/ml,B1
2,506 amU/ml,B3
3,328 amU/ml,B4
4,2210 amU/ml,B6
5,390 amU/ml,B8
6,491 amU/ml,B7

# Biological target: T3, VWF-FP N1134C mutant (albumin-fused von …)
# Assay: as above
# Description: as §1
row,covalent FVIII,Binder
1,424 amU/ml,B9
2,693 amU/ml,B3
3,843 amU/ml,B8
4,741 amU/ml,B7
5,435 amU/ml,B10

# Biological target: T4, VWF-FP P1079C mutant (albumin-fused von …)
# Assay: as above
# Description: as §1
row,covalent FVIII,Binder
1,409 amU/ml,B9
2,398 amU/ml,B5

# Biological target: T5, VWF-FP E1015C mutant (albumin-fused von …)
# Assay: as above
# Description: as §1
row,covalent FVIII,Binder
1,1640 amU/ml,B3

# Reference: patent US20180092966A1 (CSL, published 2018)
